Reference: the supplement of paper PMC9112550, “Optimization of the antimicrobial peptide Bac7 by deep mutational scanning” (BMC Biology, 2022)

Test system: Escherichia coli TOP10
Assay: shrunken log2 fold change of peptide-encoding DNA abundance (4.5 h post-induction vs induction); higher = less antimicrobial activity (less host growth inhibition)
Conditions: time post-induction: 4.5 h; library: site-saturation at positions 5, 18, 19, 20
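Note: peptides expressed intracellularly from a pBAD plasmid library in pooled LB shake-flask culture, induced with 0.3% L-arabinose, DNA abundance read by NGS, three biological replicates, DESeq2 with apeglm shrinkage.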

## RRIRQRPPRLPRPRPRPNEHPRP
  shrunken log2 fold change: -0.0963

## RRIRYRPPRLPRPRPRPEFPPRP
  shrunken log2 fold change: 0.011

## RRIRTRPPRLPRPRPRPQYRPRP
  shrunken log2 fold change: -0.0697

## RRIRRRPPRLPRPRPRPSDVPRP
  shrunken log2 fold change: -0.374

## RRIRCRPPRLPRPRPRPCIDPRP
  shrunken log2 fold change: -0.385

## RRIRNRPPRLPRPRPRPRDDPRP
  shrunken log2 fold change: 0.145

## RRIRARPPRLPRPRPRPGNIPRP
  shrunken log2 fold change: -0.239

## RRIRSRPPRLPRPRPRPMDVPRP
  shrunken log2 fold change: -0.02

## RRIRIRPPRLPRPRPRPWAQPRP
  shrunken log2 fold change: 0.0697

## RRIRWRPPRLPRPRPRPSCSPRP
  shrunken log2 fold change: -0.349

## RRIRYRPPRLPRPRPRPLFGPRP
  shrunken log2 fold change: -0.0957

## RRIRNRPPRLPRPRPRPQCCPRP
  shrunken log2 fold change: -0.0308

## RRIRGRPPRLPRPRPRPSNIPRP
  shrunken log2 fold change: 1.1

## RRIRWRPPRLPRPRPRPVVWPRP
  shrunken log2 fold change: 0.626

## RRIRHRPPRLPRPRPRPMRMPRP
  shrunken log2 fold change: -0.00476

## RRIRNRPPRLPRPRPRPMHIPRP
  shrunken log2 fold change: -0.168

## RRIRGRPPRLPRPRPRPPESPRP
  shrunken log2 fold change: 0.873

## RRIRMRPPRLPRPRPRPPTWPRP
  shrunken log2 fold change: 0.627

## RRIRNRPPRLPRPRPRPNMWPRP
  shrunken log2 fold change: -0.274

## RRIRWRPPRLPRPRPRPPVAPRP
  shrunken log2 fold change: 0.983

## RRIRVRPPRLPRPRPRPDIYPRP
  shrunken log2 fold change: -0.131

## RRIRSRPPRLPRPRPRPRSQPRP
  shrunken log2 fold change: 0.169

## RRIRNRPPRLPRPRPRPIDRPRP
  shrunken log2 fold change: 0.00281

## RRIRPRPPRLPRPRPRPGPHPRP
  shrunken log2 fold change: 0.134

## RRIRKRPPRLPRPRPRPQESPRP
  shrunken log2 fold change: -0.00973

## RRIRERPPRLPRPRPRPYCKPRP
  shrunken log2 fold change: 0.0936

## RRIRMRPPRLPRPRPRPPRRPRP
  shrunken log2 fold change: 1.47

## RRIRFRPPRLPRPRPRPDKLPRP
  shrunken log2 fold change: -0.505

## RRIRGRPPRLPRPRPRPDYCPRP
  shrunken log2 fold change: 0.0958

## RRIRERPPRLPRPRPRPCDHPRP
  shrunken log2 fold change: -0.0479

## RRIRKRPPRLPRPRPRPPILPRP
  shrunken log2 fold change: 0.0292

## RRIRMRPPRLPRPRPRPQWIPRP
  shrunken log2 fold change: -0.00285

## RRIRGRPPRLPRPRPRPARQPRP
  shrunken log2 fold change: 0.654

## RRIRHRPPRLPRPRPRPAHEPRP
  shrunken log2 fold change: 0.0538

## RRIRKRPPRLPRPRPRPAHFPRP
  shrunken log2 fold change: 0.232

## RRIRMRPPRLPRPRPRPCTFPRP
  shrunken log2 fold change: -0.209

## RRIRSRPPRLPRPRPRPQVIPRP
  shrunken log2 fold change: 0.00733

## RRIRARPPRLPRPRPRPMCDPRP
  shrunken log2 fold change: 0.526

## RRIRTRPPRLPRPRPRPDEEPRP
  shrunken log2 fold change: 0.0173

## RRIRWRPPRLPRPRPRPDRTPRP
  shrunken log2 fold change: 0.179

## RRIRKRPPRLPRPRPRPWISPRP
  shrunken log2 fold change: 0.0313

## RRIRARPPRLPRPRPRPKSNPRP
  shrunken log2 fold change: 0.253

## RRIRRRPPRLPRPRPRPGAPPRP
  shrunken log2 fold change: 0.891

## RRIRHRPPRLPRPRPRPYETPRP
  shrunken log2 fold change: -0.151

## RRIRTRPPRLPRPRPRPFPCPRP
  shrunken log2 fold change: -0.197

## RRIRYRPPRLPRPRPRPMHCPRP
  shrunken log2 fold change: -0.0557

## RRIRHRPPRLPRPRPRPHFGPRP
  shrunken log2 fold change: -0.00776

## RRIRMRPPRLPRPRPRPTTDPRP
  shrunken log2 fold change: 0.815

## RRIRVRPPRLPRPRPRPMSHPRP
  shrunken log2 fold change: 0.171

## RRIRDRPPRLPRPRPRPFCEPRP
  shrunken log2 fold change: 0.159

## RRIRERPPRLPRPRPRPFKPPRP
  shrunken log2 fold change: -0.22

## RRIRCRPPRLPRPRPRPWPGPRP
  shrunken log2 fold change: 0.123

## RRIRDRPPRLPRPRPRPDDPPRP
  shrunken log2 fold change: -0.00152

## RRIRNRPPRLPRPRPRPARMPRP
  shrunken log2 fold change: 0.991

## RRIRPRPPRLPRPRPRPGLNPRP
  shrunken log2 fold change: 0.0174

## RRIRDRPPRLPRPRPRPKCCPRP
  shrunken log2 fold change: 0.112

## RRIRIRPPRLPRPRPRPHDAPRP
  shrunken log2 fold change: -0.175

## RRIRVRPPRLPRPRPRPPELPRP
  shrunken log2 fold change: 0.186

## RRIRRRPPRLPRPRPRPTWQPRP
  shrunken log2 fold change: 0.459

## RRIRGRPPRLPRPRPRPESNPRP
  shrunken log2 fold change: 2

## RRIRLRPPRLPRPRPRPCQTPRP
  shrunken log2 fold change: -0.0348

## RRIRWRPPRLPRPRPRPEDIPRP
  shrunken log2 fold change: -0.0433

## RRIRCRPPRLPRPRPRPDGDPRP
  shrunken log2 fold change: 0.0934

## RRIRSRPPRLPRPRPRPSLRPRP
  shrunken log2 fold change: -0.269

## RRIRGRPPRLPRPRPRPGKTPRP
  shrunken log2 fold change: 0.0643

## RRIRERPPRLPRPRPRPIYQPRP
  shrunken log2 fold change: -0.394

## RRIRGRPPRLPRPRPRPIRQPRP
  shrunken log2 fold change: -0.0411

## RRIRFRPPRLPRPRPRPHESPRP
  shrunken log2 fold change: -0.0515

## RRIRDRPPRLPRPRPRPENFPRP
  shrunken log2 fold change: 0.043

## RRIRQRPPRLPRPRPRPENLPRP
  shrunken log2 fold change: -0.0164

## RRIRFRPPRLPRPRPRPLWRPRP
  shrunken log2 fold change: 0.32

## RRIRIRPPRLPRPRPRPHDLPRP
  shrunken log2 fold change: -0.057

## RRIRKRPPRLPRPRPRPLHTPRP
  shrunken log2 fold change: -0.368

## RRIRSRPPRLPRPRPRPTEYPRP
  shrunken log2 fold change: -0.206

## RRIRRRPPRLPRPRPRPKHMPRP
  shrunken log2 fold change: 0.932

## RRIRARPPRLPRPRPRPAAGPRP
  shrunken log2 fold change: 0.78

## RRIRQRPPRLPRPRPRPVRCPRP
  shrunken log2 fold change: 0.841

## RRIRDRPPRLPRPRPRPRGEPRP
  shrunken log2 fold change: 0.267

## RRIRIRPPRLPRPRPRPESRPRP
  shrunken log2 fold change: 0.0553

## RRIRARPPRLPRPRPRPVRCPRP
  shrunken log2 fold change: 0.966

## RRIRHRPPRLPRPRPRPPAHPRP
  shrunken log2 fold change: 0.0763

## RRIRMRPPRLPRPRPRPALKPRP
  shrunken log2 fold change: 1.09

## RRIRGRPPRLPRPRPRPAHWPRP
  shrunken log2 fold change: 0.378

## RRIRARPPRLPRPRPRPREWPRP
  shrunken log2 fold change: -0.0253

## RRIRLRPPRLPRPRPRPIPAPRP
  shrunken log2 fold change: -0.112

## RRIRMRPPRLPRPRPRPLMSPRP
  shrunken log2 fold change: 0.00915

## RRIRGRPPRLPRPRPRPNASPRP
  shrunken log2 fold change: 0.496

## RRIRVRPPRLPRPRPRPLNIPRP
  shrunken log2 fold change: -0.0458

## RRIRERPPRLPRPRPRPIGMPRP
  shrunken log2 fold change: 0.115

## RRIRLRPPRLPRPRPRPHEEPRP
  shrunken log2 fold change: 0.13

## RRIRIRPPRLPRPRPRPCIIPRP
  shrunken log2 fold change: -0.467

## RRIRGRPPRLPRPRPRPRKTPRP
  shrunken log2 fold change: 0.375

## RRIRQRPPRLPRPRPRPKSFPRP
  shrunken log2 fold change: 0.0406

## RRIRPRPPRLPRPRPRPDHKPRP
  shrunken log2 fold change: -0.334

## RRIRARPPRLPRPRPRPSEYPRP
  shrunken log2 fold change: -0.264

## RRIRNRPPRLPRPRPRPTGDPRP
  shrunken log2 fold change: 0.258

## RRIRMRPPRLPRPRPRPILTPRP
  shrunken log2 fold change: 0.168

## RRIRWRPPRLPRPRPRPSSIPRP
  shrunken log2 fold change: -0.338

## RRIRKRPPRLPRPRPRPFIFPRP
  shrunken log2 fold change: 0.085

## RRIRFRPPRLPRPRPRPHPQPRP
  shrunken log2 fold change: 0.246

## RRIRLRPPRLPRPRPRPNKQPRP
  shrunken log2 fold change: -0.0903

## RRIRCRPPRLPRPRPRPQGFPRP
  shrunken log2 fold change: -0.0235

## RRIRERPPRLPRPRPRPMQSPRP
  shrunken log2 fold change: 0.0874

## RRIRFRPPRLPRPRPRPPSFPRP
  shrunken log2 fold change: -0.259

## RRIRGRPPRLPRPRPRPCRHPRP
  shrunken log2 fold change: 0.0672

## RRIRYRPPRLPRPRPRPPGEPRP
  shrunken log2 fold change: 0.0198

## RRIRCRPPRLPRPRPRPHLRPRP
  shrunken log2 fold change: 0.144

## RRIRMRPPRLPRPRPRPIHIPRP
  shrunken log2 fold change: -0.221

## RRIRIRPPRLPRPRPRPCTVPRP
  shrunken log2 fold change: -0.337

## RRIRHRPPRLPRPRPRPEGFPRP
  shrunken log2 fold change: -0.078

## RRIRHRPPRLPRPRPRPGQIPRP
  shrunken log2 fold change: -0.00195

## RRIRSRPPRLPRPRPRPFPGPRP
  shrunken log2 fold change: 0.0161

## RRIRLRPPRLPRPRPRPLVMPRP
  shrunken log2 fold change: -0.0627

## RRIRCRPPRLPRPRPRPVGFPRP
  shrunken log2 fold change: 0.0344

## RRIRRRPPRLPRPRPRPCFNPRP
  shrunken log2 fold change: -0.271

## RRIRTRPPRLPRPRPRPWFEPRP
  shrunken log2 fold change: 0.647

## RRIRLRPPRLPRPRPRPAQWPRP
  shrunken log2 fold change: -0.0397

## RRIRWRPPRLPRPRPRPTDGPRP
  shrunken log2 fold change: 0.32

## RRIRARPPRLPRPRPRPVAWPRP
  shrunken log2 fold change: 0.474

## RRIRERPPRLPRPRPRPKKGPRP
  shrunken log2 fold change: -0.438

## RRIRIRPPRLPRPRPRPPYMPRP
  shrunken log2 fold change: -1.19

## RRIRARPPRLPRPRPRPCSTPRP
  shrunken log2 fold change: -0.0691

## RRIRCRPPRLPRPRPRPIFEPRP
  shrunken log2 fold change: 0.0936

## RRIRRRPPRLPRPRPRPTDMPRP
  shrunken log2 fold change: -0.0645

## RRIRFRPPRLPRPRPRPGYNPRP
  shrunken log2 fold change: -0.332

## RRIRNRPPRLPRPRPRPNKHPRP
  shrunken log2 fold change: -0.528

## RRIRQRPPRLPRPRPRPSIEPRP
  shrunken log2 fold change: -0.373

## RRIRPRPPRLPRPRPRPCWMPRP
  shrunken log2 fold change: -0.126

## RRIRRRPPRLPRPRPRPECPPRP
  shrunken log2 fold change: 0.176

## RRIRGRPPRLPRPRPRPQKYPRP
  shrunken log2 fold change: -0.0606

## RRIRERPPRLPRPRPRPCMDPRP
  shrunken log2 fold change: -0.151

## RRIRHRPPRLPRPRPRPQCYPRP
  shrunken log2 fold change: -0.75

## RRIRMRPPRLPRPRPRPKQPPRP
  shrunken log2 fold change: 2.34

## RRIRRRPPRLPRPRPRPQELPRP
  shrunken log2 fold change: 0.158

## RRIRKRPPRLPRPRPRPLPNPRP
  shrunken log2 fold change: -0.0104

## RRIRIRPPRLPRPRPRPKNKPRP
  shrunken log2 fold change: -0.68

## RRIRQRPPRLPRPRPRPFYSPRP
  shrunken log2 fold change: -0.174

## RRIRHRPPRLPRPRPRPIYFPRP
  shrunken log2 fold change: -0.123

## RRIRVRPPRLPRPRPRPSSSPRP
  shrunken log2 fold change: -0.113

## RRIRRRPPRLPRPRPRPLFSPRP
  shrunken log2 fold change: -0.0439

## RRIRKRPPRLPRPRPRPKRRPRP
  shrunken log2 fold change: 0.0103

## RRIRGRPPRLPRPRPRPRCIPRP
  shrunken log2 fold change: 0.273

## RRIRFRPPRLPRPRPRPNIYPRP
  shrunken log2 fold change: -0.116

## RRIRSRPPRLPRPRPRPLKLPRP
  shrunken log2 fold change: -0.15

## RRIRPRPPRLPRPRPRPQLRPRP
  shrunken log2 fold change: -0.0759

## RRIRYRPPRLPRPRPRPELNPRP
  shrunken log2 fold change: -0.395

## RRIRNRPPRLPRPRPRPWGRPRP
  shrunken log2 fold change: 0.0851

## RRIRYRPPRLPRPRPRPVRDPRP
  shrunken log2 fold change: -0.123

## RRIRVRPPRLPRPRPRPFSNPRP
  shrunken log2 fold change: -0.28

## RRIRYRPPRLPRPRPRPWFAPRP
  shrunken log2 fold change: -0.497
